B1: Phorbol-12-myristate-13-acetate-induced protein 1 (Homo sapiens), Q13794 (parent)
chain: MPGKKARKNAQPSPARAPAELEVECATQLRRFGDKLNFRQKLLNLISKLFCSGT
B2: Bcl-2 homologous antagonist/killer (Homo sapiens), Q16611 (parent)
chain: MASGQGPGPPRQECGEPALPSASEEQVAQDTEEVFRSYVFYRHQQEQEAEGVAAPADPEMVTLPLQPSSTMGQVGRQLAIIGDDINRRYDSEFQTMLQHLQPTAENAYEYFTKIATSLFESGINWGRVVALLGFGYRLALHVYQHGLTGFLGQVTRFVVDFMLHHCIARWIAQRGGWVAALNLGNGPILNVLVVLGVVLLGQFVVRRFFKS

Variants of: B1
Settings: with mcl1_human MCL1, Q07820
Target sequence in this assay (Q07820 whole entry): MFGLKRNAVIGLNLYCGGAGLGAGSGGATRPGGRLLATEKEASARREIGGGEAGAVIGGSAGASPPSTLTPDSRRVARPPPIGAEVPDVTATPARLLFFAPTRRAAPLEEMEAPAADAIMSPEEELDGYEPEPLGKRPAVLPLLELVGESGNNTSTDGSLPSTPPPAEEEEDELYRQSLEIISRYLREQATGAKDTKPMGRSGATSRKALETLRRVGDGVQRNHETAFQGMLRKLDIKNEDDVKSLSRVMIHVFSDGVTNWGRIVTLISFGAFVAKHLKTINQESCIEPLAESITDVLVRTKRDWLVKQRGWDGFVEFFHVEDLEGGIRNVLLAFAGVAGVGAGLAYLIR
MPGKKARKNAQPSPARAPAELEVECATQERRFGDKLNFRQKLLNLISKLFCSGT [L29E] was tested, and the “effect of a mutation on the interaction” value was “decreasing interaction”.
In the case of MPGKKARKNAQPSPARAPAELEVECATQLRRFGDKENFRQKLLNLISKLFCSGT [L36E], the “effect of a mutation on the interaction” value is reported as “decreasing interaction”.
With MPGKKARKNAQPSPARAPAELEVECATQLRREGDKLNFRQKLLNLISKLFCSGT [F32E] the “effect of a mutation on the interaction” value was “decreasing interaction”.

Variants of: B2
Settings: with mcl1_mouse Mcl1, P97287
mcl1_mouse Mcl1, P97287, sequence (P97287 whole entry): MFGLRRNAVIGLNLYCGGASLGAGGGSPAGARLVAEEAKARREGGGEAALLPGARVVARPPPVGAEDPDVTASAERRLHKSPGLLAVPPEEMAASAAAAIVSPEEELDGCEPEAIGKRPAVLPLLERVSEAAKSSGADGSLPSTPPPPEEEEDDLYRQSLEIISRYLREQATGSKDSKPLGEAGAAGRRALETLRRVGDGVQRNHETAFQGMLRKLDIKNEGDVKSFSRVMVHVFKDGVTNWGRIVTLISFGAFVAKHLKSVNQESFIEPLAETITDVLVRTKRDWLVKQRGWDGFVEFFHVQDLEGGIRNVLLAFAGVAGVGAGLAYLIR
With MASGQGPGPPRQECGEPALPSASEEQVAQDTEEVFRSYVFYRHQQEQEAEGVAAPADPEMVTLPLQPSSTMGQVGRQAAIIGDDINRRYDSEFQTMLQHLQPTAENAYEYFTKIATSLFESGINWGRVVALLGFGYRLALHVYQHGLTGFLGQVTRFVVDFMLHHCIARWIAQRGGWVAALNLGNGPILNVLVVLGVVLLGQFVVRRFFKS [L78A] the “effect of a mutation on the interaction” value was “decreasing interaction”.

Variants of: B2
Settings: with mcl1_human MCL1, Q07820
Target sequence in this assay (Q07820 whole entry): as the sequence (Q07820 whole entry) above
With MASGQGPGPPRQECGEPALPSASEEQVAQDTEEVFRSYVFYRHQQEQEAEGVAAPADPEMVTLPLQPSSTMGQVGRQAAIIGDDINRRYDSEFQTMLQHLQPTAENAYEYFTKIATSLFESGINWGRVVALLGFGYRLALHVYQHGLTGFLGQVTRFVVDFMLHHCIARWIAQRGGWVAALNLGNGPILNVLVVLGVVLLGQFVVRRFFKS [L78A] the “effect of a mutation on the interaction” value was “decreasing interaction”.

Variants of: B2
Settings: with bax_human BAX
MASGQGPGPPRQECGEPALPSASEEQVAQDTEEVFRSYVFYRHQQEQEAEGVAAPADPEMVTLPLQPSSTMGQVGRQAAIIGDDINRRYDSEFQTMLQHLQPTAENAYEYFTKIATSLFESGINWGRVVALLGFGYRLALHVYQHGLTGFLGQVTRFVVDFMLHHCIARWIAQRGGWVAALNLGNGPILNVLVVLGVVLLGQFVVRRFFKS [L78A] was tested, and the “effect of a mutation on the interaction” value was “decreasing interaction”.

Source: IntAct's records for PubMed 15901672
